In patent US20250346668A1 (GENOR BIOPHARMA, published 2025):
Changes are numbered by the printed parent chain. Each block holds one binder with its values, some of them ahead of it.

Assays:
[1] = target: T1, human CD3e/g antigen (ACRO, catalog number CDG-H52W5) (human, UniProt P07766 23-126; P09693 23-116); test: SPR (Biacore 8K), antibody captured via anti-human Fc
T1 construct: Bought reagent used as the Biacore analyte; also called hCD3e/g
Procedure: The equilibrium dissociation constant of binding of CD3 antibodies to human CD3e/g antigen (purchased from ACRO, catalog number CDG-H52W5) was determined by kinetic binding method using Biacore 8K (GE) system. Through the capture method, the carboxylated dextran surface of CM5 chip was first activated with NHS (N-hydroxysuccinimide) and EDC (1-(3-dimethylaminopropyl)-3-ethylcarbodiimide hydrochloride), and then added with an anti-human IgG (Fc) antibody, the free amino group of which could form an amide bond with the activated carboxyl group, thereby being fixed on the chip surface. The anti-human IgG (Fc) antibody could bind to the Fc end of CD3 antibodies to capture the antibodies, and then a series of concentrations of antigen were added to obtain the binding and dissociation curves of antibody and antigen, and the corresponding kinetic constants were calculated by Biacore Evaluation software, as shown in the table below.

CD3 on Jurkat cells [2] = target: T2, CD3 on Jurkat cells (human); test: FACS on Jurkat cells, Alexa 488 secondary antibody, MFI [a]
T2 construct: native, on the surface of Jurkat cells; The sheets print only 'Jurkat'; also called human CD3; TCR/CD3 complex on the human T cell line Jurkat
Procedure: (§1) Jurkat cells were amplificatorily cultured to 3×10⁶/ml in a T-175 cell culture flask, the culture medium was removed by centrifugation, and the cells were washed twice with PBS buffer (purchased from Invitrogen). After cell counting, the cells were diluted to 2×10⁶ cells/ml with PBS buffer, added with 1% BSA blocking solution, where the percentage was a mass percentage, incubated on ice for 30 minutes, and then washed twice with PBS buffer by centrifugation. The collected cells were suspended to 2×10⁶ cells/mL with FACS buffer (PBS+1% BSA, where the percentage was a mass percentage), and added to a 96-well FACS reaction plate at 100 μl per well, and samples of the purified CD3 antibodies obtained in Example 4 to be tested were added at 100 μl per well, and incubated at 4° C. for 2 hours. The plate was washed twice with FACS buffer by centrifugation, added with 100 μl per well of fluorescent (Alexa 488) labeled secondary antibody (purchased from Jackson), and incubated at 4° C. for 1 hour. After washing 3 times by centrifugation with FACS buffer, the cells were suspended with 100 μl of FACS buffer, and detected and analyzed using BD FACS LSRFortessa (purchased from BD). The results are shown in FIG. 5, where the IgG control is human IgG1 (hIgG).

CD3 on Jurkat cells [3] = target: T2, CD3 on Jurkat cells; test: FACS on Jurkat cells, Alexa 488 secondary antibody, MFI [b]
Procedure: as §1

[4] = target: T3, Cynomolgus monkey CD3e/g protein (cynomolgus monkey); test: ELISA, coated cyno CD3e/g
T3 construct: also called cyno CD3e/g; cCD3e/g
Procedure: (§2) Human CD3e/g protein, cynomolgus monkey CD3e/g protein (sequences shown in Table 1) or human CD3e/d protein was diluted with PBS to a final concentration of 5.0 μg/mL, and then added with 100 μl per well to a 96-well ELISA plate. The plate was sealed with plastic film and incubated overnight at 4° C. The plate was washed twice with plate washing solution [PBS+0.01% (v/v) Tween 20] on the next day, and was added with blocking solution [PBS+0.01% (v/v) Tween 20+1% (w/w) BSA] to block at room temperature for 2 hours. The blocking solution was poured off, and 100 μl per well of the purified CD3e/g antibody obtained in Example 2 was added. After incubation at 37° C. for 2 hours, the plate was washed 3 times with plate washing solution [PBS+0.01% (v/v) Tween20]. After adding HRP (horseradish peroxidase) labeled secondary antibody (purchased from Sigma), the plate was incubated at 37° C. for 2 hours, washed 3 times with plate washing solution [PBS+0.01% (v/v) Tween 20]. After adding 100 μl per well of TMB substrate and incubating at room temperature for 30 minutes, 100 μl per well of stop solution (1.0N HCl) was added. […] FIG. 2 and Table 3 show the binding activities of CD3e/g antibodies to hCD3e/g as detected by ELISA, and FIG. 3 and Table 4 show the binding activities of CD3e/g antibodies to cyno CD3e/g as detected by ELISA, wherein the IgG control is mouse IgG, and the data in the tables are OD_{450 nm} values. Among them, HIT3a was purchased from BD pharmigen with a catalog number 555336; SP34 was purchased from BD pharmigen with a catalog number 551916. OKT3 was purchased from Biolegend.

[5] = target: T4, human CD3e/d protein (Sinobiological, CAT: CT038-H2508H-B) (human, UniProt P07766 23-126; P04234 22-105); test: ELISA, coated hCD3e/d
T4 construct: Bought reagent; also called hCD3e/d
Procedure: as §2

B1: hAb001-27 (antibody, V domains shown)
VH: QVQLVQSGAEVKKPGASVKVSCKASGYSFTNYYMHWVRQAPGQRLEWIGWTYPGNNNIKYNEKFKGRATITADTSASTAYMELSSLRSEDTAVYYCARDGYGYYFFDYWGQGTLVTVSS
VL: DIVMTQSPDSLAVSLGERATMSCKSSQSLLNNRTRKNYLAWYQQKPGQPPKLLIYWASTRESGVPDRFSGSGSGTDFTLTISSLQAEDVAVYYCKQSYTLRTFGGGTKLEIK
notes: Humanized; constant regions not specified
- Kd [1]: 21 nM
- koff [1]: 0.00823 s⁻¹
- kon [1]: 391000 M⁻¹ s⁻¹
- EC50 (read off the curve) (CD3 on Jurkat cells [2]): ~0.3 nM

B2: CAb007 (antibody, V domains shown)
VH: QVQLQQSGPELVKPGASVKISCKASGSTFTDNYIHWVKQRPGQGLEWIGWIYPGSVNIKYNEKFKDKATLTADTSSTTAYMQLSSLSSEDSAIYYCARDISRYYFDYWGQGTTLTVSS
VL: DIVMSQSPSSLAVSAGERVTMNCKSSQSLLNSRTRKNYLAWYQQKPGQSPKLLIYWASTRESGVPDRFTGSGSGTDFTLTISSVQAEDLAVYYCKQSFILRTFGGGTKLAIK
notes: Chimeric: mouse variable regions linked to human light and heavy constant regions; constant regions not specified
- Kd [1]: 12.1 nM
- koff [1]: 0.00532 s⁻¹
- kon [1]: 438000 M⁻¹ s⁻¹
- EC50 (read off the curve) (CD3 on Jurkat cells [3]): ~0.1 nM

B4: CAb001 (antibody, V domains shown)
VH: QVQLQQSGPELVKPGASVKISCKASGYSFTNYYMHWVKQRPGQGLEWIGWTYPGNNNIKYNEKFKGKATLTADTSSSTAYMQLSSLTSEDSAVYYCARDGYGYYFFDYWGQGIILTVSS
VL: B2 VL with R18K, N22S, S32N, V91I, F98Y, I99T
notes: as for B2
- Kd [1]: 23.1 nM
- koff [1]: 0.00616 s⁻¹
- kon [1]: 267000 M⁻¹ s⁻¹
- EC50 (read off the curve) (CD3 on Jurkat cells [2]): ~0.3 nM

B6: mAb008 (antibody, V domains shown)
VH: QVQLQQSGAELARPGASVKMSCKTSGYTFTDYTVNWVKQRPGQGLEWIGYINPFNSYTKYNQKFKDKATLTADKSSSTAYMQLSSLTSEDSAVYFCANSVSTYWGQGTTLTVSS
VL: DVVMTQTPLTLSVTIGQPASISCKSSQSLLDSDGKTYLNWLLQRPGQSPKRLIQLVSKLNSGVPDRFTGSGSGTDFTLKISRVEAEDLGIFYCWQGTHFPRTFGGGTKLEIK
notes: Mouse hybridoma antibody
- EC50 [4]: 0.44 nM
- OD450 nm at 0.000853 nM [4]: 0.0893 OD450 nm
- OD450 nm at 0.0043 nM [4]: 0.111 OD450 nm
- OD450 nm at 0.02 nM [4]: 0.16 OD450 nm
- OD450 nm at 0.11 nM [4]: 0.48 OD450 nm
- OD450 nm at 0.53 nM [4]: 2.03 OD450 nm
- OD450 nm at 2.67 nM [4]: 3.32 OD450 nm
- OD450 nm at 13.3 nM [4]: 3.48 OD450 nm
- OD450 nm at 66.7 nM [4]: 3.42 OD450 nm
- EC50 [5]: 0.041 nM
- Emax (OD) [5]: 3.05 OD
- OD450 nm at 0.00128 nM [5]: 0.16 OD450 nm
- OD450 nm at 0.0064 nM [5]: 0.53 OD450 nm
- OD450 nm at 0.032 nM [5]: 1.31 OD450 nm
- OD450 nm at 0.16 nM [5]: 2.48 OD450 nm
- OD450 nm at 0.8 nM [5]: 2.88 OD450 nm
- OD450 nm at 4 nM [5]: 2.96 OD450 nm
- OD450 nm at 20 nM [5]: 3 OD450 nm
- OD450 nm at 100 nM [5]: 3.05 OD450 nm

Results, then the binder that gave them:

- EC50 [4]: 0.26 nM
- OD450 nm at 0.000853 nM [4]: 0.0902 OD450 nm
- OD450 nm at 0.0043 nM [4]: 0.128 OD450 nm
- OD450 nm at 0.02 nM [4]: 0.22 OD450 nm
- OD450 nm at 0.11 nM [4]: 0.73 OD450 nm
- OD450 nm at 0.53 nM [4]: 2.7 OD450 nm
- OD450 nm at 2.67 nM [4]: 3.45 OD450 nm
- OD450 nm at 13.3 nM [4]: 3.47 OD450 nm
- OD450 nm at 66.7 nM [4]: 3.49 OD450 nm
- EC50 [5]: 0.017 nM
- Emax (OD) [5]: 3.04 OD
- OD450 nm at 0.00128 nM [5]: 0.26 OD450 nm
- OD450 nm at 0.0064 nM [5]: 0.71 OD450 nm
- OD450 nm at 0.032 nM [5]: 2.02 OD450 nm
- OD450 nm at 0.16 nM [5]: 2.86 OD450 nm
- OD450 nm at 0.8 nM [5]: 2.96 OD450 nm
- OD450 nm at 4 nM [5]: 2.99 OD450 nm
- OD450 nm at 20 nM [5]: 3.01 OD450 nm
- OD450 nm at 100 nM [5]: 3.04 OD450 nm
B3: mAb007 (antibody, V domains shown)
VH: B2 VH
VL: B2 VL
notes: Mouse hybridoma antibody; The variable regions are printed as CAb007 VH/VL

- EC50 [4]: 0.33 nM
- OD450 nm at 0.000853 nM [4]: 0.164 OD450 nm
- OD450 nm at 0.0043 nM [4]: 0.152 OD450 nm
- OD450 nm at 0.02 nM [4]: 0.17 OD450 nm
- OD450 nm at 0.11 nM [4]: 0.64 OD450 nm
- OD450 nm at 0.53 nM [4]: 2.43 OD450 nm
- OD450 nm at 2.67 nM [4]: 3.45 OD450 nm
- OD450 nm at 13.3 nM [4]: 3.5 OD450 nm
- OD450 nm at 66.7 nM [4]: 3.49 OD450 nm
- EC50 [5]: 0.022 nM
- Emax (OD) [5]: 3.05 OD
- OD450 nm at 0.00128 nM [5]: 0.27 OD450 nm
- OD450 nm at 0.0064 nM [5]: 0.72 OD450 nm
- OD450 nm at 0.032 nM [5]: 1.83 OD450 nm
- OD450 nm at 0.16 nM [5]: 2.72 OD450 nm
- OD450 nm at 0.8 nM [5]: 2.96 OD450 nm
- OD450 nm at 4 nM [5]: 2.99 OD450 nm
- OD450 nm at 20 nM [5]: 3.05 OD450 nm
- OD450 nm at 100 nM [5]: 3.02 OD450 nm
B5: mAb001 (antibody, V domains shown)
VH: B4 VH
VL: B2 VL with R18K, N22S, S32N, V91I, F98Y, I99T
notes: Mouse hybridoma antibody; The variable regions are printed as CAb001 VH/VL

- EC50 [4]: 0.32 nM
- OD450 nm at 0.000853 nM [4]: 0.0755 OD450 nm
- OD450 nm at 0.0043 nM [4]: 0.126 OD450 nm
- OD450 nm at 0.02 nM [4]: 0.19 OD450 nm
- OD450 nm at 0.11 nM [4]: 0.63 OD450 nm
- OD450 nm at 0.53 nM [4]: 2.44 OD450 nm
- OD450 nm at 2.67 nM [4]: 3.41 OD450 nm
- OD450 nm at 13.3 nM [4]: 3.54 OD450 nm
- OD450 nm at 66.7 nM [4]: 3.46 OD450 nm
- EC50 [5]: 0.027 nM
- Emax (OD) [5]: 3.03 OD
- OD450 nm at 0.00128 nM [5]: 0.24 OD450 nm
- OD450 nm at 0.0064 nM [5]: 0.66 OD450 nm
- OD450 nm at 0.032 nM [5]: 1.67 OD450 nm
- OD450 nm at 0.16 nM [5]: 2.64 OD450 nm
- OD450 nm at 0.8 nM [5]: 2.85 OD450 nm
- OD450 nm at 4 nM [5]: 2.97 OD450 nm
- OD450 nm at 20 nM [5]: 3.02 OD450 nm
- OD450 nm at 100 nM [5]: 3.03 OD450 nm
B7: mAb009 (antibody, V domains shown)
VH: B6 VH with A12T, T24A, V34I, N35H, N55S, S56D, M81I, S84N, F95Y, T102I
VL: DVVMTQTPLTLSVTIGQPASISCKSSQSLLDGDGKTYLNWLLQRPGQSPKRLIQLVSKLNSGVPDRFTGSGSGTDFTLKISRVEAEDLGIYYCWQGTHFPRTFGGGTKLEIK
notes: Mouse hybridoma antibody
